The target of this experiment is T1, HA-FBXO11 fusion protein expressed in E. coli (UniProt Q86XK2 1-927).
T1 construct: FBXO11 with an HA tag, expressed in E. coli; The methods of the GST pull-down speak of total cell lysates, the results of purified proteins from E. coli; source: E. coli, purified
T1 sequence (looked up): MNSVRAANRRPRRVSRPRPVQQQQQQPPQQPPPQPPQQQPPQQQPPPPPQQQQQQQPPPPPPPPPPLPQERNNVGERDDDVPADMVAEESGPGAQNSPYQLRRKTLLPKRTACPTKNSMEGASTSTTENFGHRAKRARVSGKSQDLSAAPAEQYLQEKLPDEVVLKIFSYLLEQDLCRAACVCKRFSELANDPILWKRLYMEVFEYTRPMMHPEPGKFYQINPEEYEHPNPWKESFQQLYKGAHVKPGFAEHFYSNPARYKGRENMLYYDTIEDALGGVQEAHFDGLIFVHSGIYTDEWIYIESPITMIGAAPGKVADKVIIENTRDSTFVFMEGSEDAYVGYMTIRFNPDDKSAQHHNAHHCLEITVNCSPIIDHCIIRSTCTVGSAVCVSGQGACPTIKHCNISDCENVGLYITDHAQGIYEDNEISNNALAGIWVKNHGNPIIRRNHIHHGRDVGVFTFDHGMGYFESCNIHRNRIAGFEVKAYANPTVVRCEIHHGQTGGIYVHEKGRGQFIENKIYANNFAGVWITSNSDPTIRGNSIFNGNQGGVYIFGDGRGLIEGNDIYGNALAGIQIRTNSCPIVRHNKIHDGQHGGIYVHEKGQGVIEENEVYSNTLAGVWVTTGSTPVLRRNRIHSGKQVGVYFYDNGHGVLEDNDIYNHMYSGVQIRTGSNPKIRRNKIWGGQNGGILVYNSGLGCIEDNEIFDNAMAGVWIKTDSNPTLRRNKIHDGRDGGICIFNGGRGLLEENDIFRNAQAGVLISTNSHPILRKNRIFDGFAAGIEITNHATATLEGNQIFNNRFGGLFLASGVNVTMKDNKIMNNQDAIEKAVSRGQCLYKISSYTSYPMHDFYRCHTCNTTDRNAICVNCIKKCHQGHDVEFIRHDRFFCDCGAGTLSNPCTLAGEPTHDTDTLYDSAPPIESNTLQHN
The experiment can be described thus: pull-down; GST pull-down (Magne GST pull-down system), GST-hnRNPA2B1 immobilised on magnetic beads, overnight at 4 °C, HA-FBXO11 expressed in E. coli, western blot. As to conditions: both partners purified.

B1: GST-hnRNPA2B1 (natural protein, UniProt P22626 1-353, looked up)
chain: MEKTLETVPLERKKREKEQFRKLFIGGLSFETTEESLRNYYEQWGKLTDCVVMRDPASKRSRGFGFVTFSSMAEVDAAMAARPHSIDGRVVEPKRAVAREESGKPGAHVTVKKLFVGGIKEDTEEHHLRDYFEEYGKIDTIEIITDRQSGKKRGFGFVTFDDHDPVDKIVLQKYHTINGHNAEVRKALSRQEMQEVQSSRSGRGGNFGFGDSRGGGGNFGPGPGSNFRGGSDGYGSGRGFGDGYNGYGGGPGGGNFGGSPGYGGGRGGYGGGGPGYGNQGGGYGGGYDNYGGGNYGSGNYNDFGNYNQQPSNYGPMKSGNFGGSRNMGGPYGGGNYGPGGSGGSGGYGGRSRY
notes: hnRNPA2B1 as a GST fusion protein; source: E. coli BL21 (DE3), purified (GST-tag purification resin)
In the case of B1, the binding result is reported as “binds”.
